Laboratory results as given in US11873336 (TENEOBIO, dated 2024).
Positions count from the first letter of the chain named.

T1: human CD22 protein (recombinant CD22 extracellular domain) (human, UniProt P20273 20-687)
T1 construct: extracellular domain; also called SIGLEC-2
T1 sequence (looked up): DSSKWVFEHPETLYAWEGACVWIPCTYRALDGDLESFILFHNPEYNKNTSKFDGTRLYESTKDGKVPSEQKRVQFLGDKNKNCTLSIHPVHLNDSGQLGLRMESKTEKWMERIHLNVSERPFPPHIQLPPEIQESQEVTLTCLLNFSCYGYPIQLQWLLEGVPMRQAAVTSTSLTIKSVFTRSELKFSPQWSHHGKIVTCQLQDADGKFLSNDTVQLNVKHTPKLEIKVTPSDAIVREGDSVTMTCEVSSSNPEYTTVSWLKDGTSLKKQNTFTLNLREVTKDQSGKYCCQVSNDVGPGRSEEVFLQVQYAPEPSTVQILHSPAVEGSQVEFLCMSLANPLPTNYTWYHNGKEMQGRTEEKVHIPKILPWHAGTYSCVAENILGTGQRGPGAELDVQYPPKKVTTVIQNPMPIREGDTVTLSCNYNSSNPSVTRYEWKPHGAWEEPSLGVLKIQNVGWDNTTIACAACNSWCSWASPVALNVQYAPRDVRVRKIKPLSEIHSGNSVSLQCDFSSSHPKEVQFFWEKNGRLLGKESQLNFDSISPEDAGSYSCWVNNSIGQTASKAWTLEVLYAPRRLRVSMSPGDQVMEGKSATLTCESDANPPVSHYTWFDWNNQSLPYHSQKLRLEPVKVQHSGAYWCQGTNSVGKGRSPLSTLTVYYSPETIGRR

T2: human CD22 on CD22-positive Burkitt's lymphoma cells (Daudi, Raji, Ramos) (human, UniProt P20273 20-847)
T2 construct: whole, on cells; also called CD22+ cells; CD22 positive cells
T2 sequence (looked up): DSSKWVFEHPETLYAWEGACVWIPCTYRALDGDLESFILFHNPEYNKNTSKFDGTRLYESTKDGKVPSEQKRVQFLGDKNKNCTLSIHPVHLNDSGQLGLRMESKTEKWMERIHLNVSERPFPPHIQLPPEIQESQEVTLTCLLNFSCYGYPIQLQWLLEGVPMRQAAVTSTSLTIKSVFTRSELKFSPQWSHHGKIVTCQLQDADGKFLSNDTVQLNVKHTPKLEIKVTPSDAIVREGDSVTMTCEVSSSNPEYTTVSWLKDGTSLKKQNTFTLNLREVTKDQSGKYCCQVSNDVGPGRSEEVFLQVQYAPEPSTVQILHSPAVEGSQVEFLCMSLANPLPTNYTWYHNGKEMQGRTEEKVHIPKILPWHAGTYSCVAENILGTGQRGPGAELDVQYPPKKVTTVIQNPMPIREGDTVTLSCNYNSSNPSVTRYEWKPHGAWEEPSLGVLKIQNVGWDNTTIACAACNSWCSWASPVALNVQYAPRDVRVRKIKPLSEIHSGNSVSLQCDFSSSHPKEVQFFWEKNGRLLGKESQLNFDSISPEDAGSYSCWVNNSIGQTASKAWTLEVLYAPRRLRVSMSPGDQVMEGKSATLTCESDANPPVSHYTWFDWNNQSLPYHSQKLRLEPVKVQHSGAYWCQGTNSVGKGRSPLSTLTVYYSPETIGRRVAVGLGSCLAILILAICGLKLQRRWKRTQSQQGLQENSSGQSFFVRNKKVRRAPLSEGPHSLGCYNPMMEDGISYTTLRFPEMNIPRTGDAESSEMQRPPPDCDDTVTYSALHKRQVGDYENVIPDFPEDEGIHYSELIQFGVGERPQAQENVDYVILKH

B1: anti-CD22 heavy chain-only antibody with the VH of SEQ ID NO: 77 (antibody, V domains shown)
VH: QLQLQESGPGLVKPSETLSLTCTVSGGSISSSSYYWGWFRHPPGKGLDWIGSIHYSGSTYYNPSLKSRVTISVDTSRNQFSLNLSSVTAADTAVYYCTRDDSSNWRSRGQGTLVTVSS
notes: Heavy chain-only antibody (UniAb), human IgG
B2: anti-CD22 heavy chain-only antibody with the VH of SEQ ID NO: 55 (antibody, V domains shown)
VH: QLQLQESGPGLVKPSETLSLTCAVYGGSFSGYYWGWIRQPPGKGLEWIGHIYYSGATYYNPSLKNRVTISVDTSRNQFSLNLSSVTAADTAVYYCTREDSSSWRSRGQGTLVTVSS
notes: as for B1
B3: anti-CD22 heavy chain-only antibody with the VH of SEQ ID NO: 81 (antibody, V domains shown)
VH: QLQLQESGPGLVKPSETLSLTCTVSGGSIISSSYYWGWIRQPPGKGLEWIGSIYYSGSAYYHPSLKSRVTISIDTSKNQFSLKLSSVTAADTAVYYCARDDSSNWRSRGQGTLVTVSS
notes: as for B1
B4: anti-CD22 heavy chain-only antibody with the VH of SEQ ID NO: 84 (antibody, V domains shown)
VH: QLQLQESGPGLVKPSETLSLTCTVSGGSINDNSHYWGWIRQPPGKGLEWIGHIYYSGATYYNPSLKNRVTISVDTSRNQFSLNLSSVTAADTAVYYCTREDSSSWRSRGQGTLVTVSS
notes: as for B1
B5: anti-CD22 heavy chain-only antibody with the VH of SEQ ID NO: 82 (antibody, V domains shown)
VH: B1 VH with F39I, H41Q, D48E, H54Y, S58A, S67N
notes: as for B1
B6: anti-CD22 heavy chain-only antibody with the VH of SEQ ID NO: 83 (antibody, V domains shown)
VH: B4 VH with G27D, N30S, D31S, N32G, S33D, H34Y, F80S, S104N
notes: as for B1

How the values were obtained:
[1] = molecular target: T1, human CD22 protein (recombinant CD22 …); experiment: ELISA on recombinant CD22 extracellular domain and/or cell binding
[2] = molecular target: T2, human CD22 on CD22-positive Burkitt's …; experiment: cell binding, Daudi cells
Protocol: Binding to CD22 positive cells was assessed by flow cytometry (Guava easyCyte 8HT, EMD Millipore) using the Daudi cell line (ATCC). Briefly, 100,000 target cells were stained with a dilution series of purified UniAbs™ for 30 minutes at 4° C. Following incubation, the cells were washed twice with flow cytometry buffer (1×PBS, 1% BSA, 0.1% NaN_3) and stained with goat F(ab')2 anti-human IgG conjugated to R-phycoerythrin (PE) (Southern Biotech, cat. #2042-09) to detect cell-bound antibodies. After a 20-minute incubation at 4° C., the cells were washed twice with flow cytometry buffer and then mean fluorescence intensity (MFI) was measured by flow cytometry. EC50 values were calculated using GraphPad Prism 7. Binding to *cynomolgus* CD22 positive cells was determined using the same protocol with the following modifications: the target cells were from CHO cells stably transfected to express the extracellular domain of *cynomolgus* CD22 and each antibody was tested at a single concentration (~1.7 µg/mL) so EC50 values were not calculated.

Binder	binding result [1]	binding result [2]
B1	binds	binds
B2	binds	binds
B3	binds	binds
B4	binds	binds
B5	binds	binds
B6	binds	binds
